The chains are these.
B1: LINE1-full (parent)
chain: UACGUAGGUGGUUUUCCCCUGAUAGUGCUAAGGGGGCCUGGAAGUUUGGACUGGGCAGAGCUCAACACAGCGUGGCAAAGUGGCUGUGGCUAGACUGCCUCUCUGGAUUCCUCGUCACUCAGCAGGGCAUCUCUGAGAGAAAUGCC

In the data set the parent is B1. The data set is described as follows: self-cleavage, relative activity (ratio to wild type); higher = more cleavage; in vitro, sequencing; the parent is a self-cleaving ribozyme.
As for U29A A117U, the self-cleavage is 1.06. For U29C U130G the value was 1.84.

Turning to U29A U45G, the self-cleavage turned out to be 0.38.

For U29A U45C, the self-cleavage stood at 0.96. With U26C A59U the figure was 0.84; with U26C G89A, 0.03. With U29A G44A the figure was 0.61. For U29G A124G the value was 0.44; for C28G U134C, 0.82. On to G27C U112G, for which the self-cleavage is 1.11. With U26C C63U the figure was 0.66; with U29A A141G, 1.15. With U29C A59U the figure was 1.13. U29C A59G: the self-cleavage was 0.16. Turning to G27U U39C, the self-cleavage stood at 0.63.

For the variant U29A U81A, the self-cleavage is 1.96.

With U29C U132C, the self-cleavage was 1.46.

U29C U132A: the self-cleavage turned out to be 1.47. With U26C A142G the figure was 1.43; with U26C A31G, 0.91; with U26C A31C, 1.23. For U26C U85C the value was 0.27; for U26C U85A, 0.11; for G27U C84A, 0.1. In the case of U29G U85C, the self-cleavage was 0.46. For the variant U26G A138G, the self-cleavage stood at 1.21. Consider G27A G54A, for which the self-cleavage was found to be 0.59. For U29G U104A the value was 1.6. As for G27A G144A, the self-cleavage turned out to be 1.08.

Regarding U26C A42G, the self-cleavage came out at 1.06.

U26A U73G: the self-cleavage amounted to 1.18. For U26A U73A the value was 1.24; for U26A U73C, 1.15. With C28U A57U the figure was 0.11; with U26C A69C, 0.08.

On to C28G U143A, for which the self-cleavage stood at 1.45. For U29C G53A the value was 0.94. On to U29A A69U, for which the self-cleavage was determined as 0.07.

On to U29A A69G, for which the self-cleavage is 0.42. With U29C G36A the figure was 1.63; with U29A G72A, 1.13; with U26C U47A, 1.16. With U29C A92G the figure was 0.21; with U26C U87A, 0.08; with U26A U52A, 0.81. U29C U81A: the self-cleavage amounted to 1.3. For U29C U81C the value was 1.27; for U29C U119A, 1.21.

Regarding U29C U119C, the self-cleavage amounted to 1.45. On to C28U G89U, for which the self-cleavage was found to be 0.06.

In the case of U29A C101U, the self-cleavage worked out at 1.71.

Consider U26C C98U, for which the self-cleavage stood at 0.11.

For C28A A78G, the self-cleavage stood at 0.61. As for C28U U45G, the self-cleavage worked out at 1.09.

Consider U29C G60A, for which the self-cleavage came to 0.02. As to U29A A64G, the self-cleavage was found to be 0.48. Take U26A U100G: the self-cleavage amounted to 1.31. On to U26A U100C, for which the self-cleavage turned out to be 1.07. As to U29C A140G, the self-cleavage was 1.2. Take U26G U100C: the self-cleavage worked out at 1.22.

Consider U26G G60C, for which the self-cleavage was determined as 0.07.

With U29C U47C, the self-cleavage was 1.85. For U29C U47A the value was 1.11; for C28A U134C, 1.92. With U26A U87A, the self-cleavage is 0.01. On to C28A A94G, for which the self-cleavage came to 0. For U26C G54A the value was 0.6.

In the case of U29A A94G, the self-cleavage came to 0.54. U26C U104A: the self-cleavage amounted to 1.13.

Consider U26C U104C, for which the self-cleavage came to 0.84. For G27A C98A the value was 0.14; for U26C A140U, 0.59. With U26C G72C the figure was 0. For U26G U47C the value was 1.16; for U29A G48A, 1.01.

For U29C C84G, the self-cleavage amounted to 0.14.

On to U26C A107C, for which the self-cleavage is 1.89.

With U26G A79G, the self-cleavage was determined as 0.53.

For U29C U62C, the self-cleavage was determined as 0.15.

As to U29A U62C, the self-cleavage was 0. Turning to U29A G89U, the self-cleavage amounted to 0.04. With C28A G126A the figure was 0.66; with U29C U104C, 1; with U29C U104A, 1.12.

Consider U26C G34A, for which the self-cleavage was determined as 1.03.

As for U26C U130G, the self-cleavage worked out at 1.61. As for U26C G58U, the self-cleavage is 0.04. With U29C A42G the figure was 1.66; with C28U U143G, 1.02; with U29C A124U, 1.04.

Take U29C A124G: the self-cleavage was 1.02. With U29C A124C the figure was 1.23; with U29G U47A, 1.41. On to U29C U45G, for which the self-cleavage worked out at 0.79. For U29C U45C the value was 1.08; for U26G C111U, 0.63.

For the variant U29C U134A, the self-cleavage is 0.89.

As to U29C U134C, the self-cleavage came out at 1.37. Consider U29C U85A, for which the self-cleavage came to 0.12. With U29C U85C the figure was 0.28; with U26G G125U, 1.59.

Consider C28A C116U, for which the self-cleavage is 1.34. As to G27A U143C, the self-cleavage amounted to 1.38. On to U29C A136U, for which the self-cleavage amounted to 1.54.

For the variant U26G U119C, the self-cleavage worked out at 0.98. Consider G27A A136G, for which the self-cleavage came out at 0.93. For U29C U115C the value was 1.75; for U26A U91C, 0.32; for C28A G54A, 0.57. With U29C U73C the figure was 1.3; with U26C U46C, 1.71; with U26C U46G, 1.62.

Turning to G27A C111A, the self-cleavage turned out to be 1.16. With U26C G114U the figure was 1.49. With U29C U102C the figure was 1.1; with U29C U102A, 1.84. Consider U26G A124G, for which the self-cleavage stood at 0.69. For U26C U52C the value was 0.98; for C28A A79U, 1.47; for C28U A140U, 0.95. With C28A U115C the figure was 1.07. As to U26A U143C, the self-cleavage was 0.86. On to U26A U143A, for which the self-cleavage came out at 2.23. With U26C C37U the figure was 0.77. For U26C G105A the value was 1.32. For U26A U119A the value was 0.78; for U26A U119G, 1.45; for C28A U102A, 1.12. For the variant U26G G34A, the self-cleavage stood at 0.93. With U29C A94G the figure was 0.54; with C28U C84U, 0.25; with U26C C101A, 0.85. With U29A U134C the figure was 0.87; with U26A U39C, 0.73; with U26G G55A, 0.21. Regarding U29C C111A, the self-cleavage was determined as 1.24. With C28A A117G the figure was 0.74; with U29A A142C, 0.56. With U29A A142G the figure was 1.04; with U26G C38U, 0.91. With G27A U130C the figure was 1.34. Take U26C G135A: the self-cleavage was determined as 1.65. Regarding U29C C63A, the self-cleavage worked out at 0.07. Turning to U29C C63U, the self-cleavage was found to be 0.48. For C28U A121G the value was 0.66. For G27A U73C, the self-cleavage worked out at 0.93. With G27A U73A the figure was 0.87.

For U26C U143C, the self-cleavage is 1.07. With U26C U143A the figure was 1.44; with U29G U130C, 0.63; with U29C A65C, 0.1. Take U29C A65G: the self-cleavage was 0.09.

Consider U26G U87C, for which the self-cleavage amounted to 0.3.

For U26G U87A, the self-cleavage stood at 0. For C28U A141U the value was 0.54; for C28G U45C, 1.09; for C28U A43C, 1.2.

For U29C A121U, the self-cleavage was found to be 1.5. With U29C A121C the figure was 1.93. With U29C U100C the figure was 1.49; with G27U A67G, 0.28; with U26C U62G, 0.07. With U26C U62A, the self-cleavage is 0.02.

With C28G U85A, the self-cleavage is 0.23. With U26G A117U the figure was 1.3.

With G27A A142G, the self-cleavage was 1.15.

Regarding U29C A69U, the self-cleavage amounted to 0.11.

The values are drawn from the RNAGym collection of RNA variant scans (doi:10.7554/elife.90254).
